Data: article PMC4686814 (Nature communications, 2015)
Residue numbers refer to the chain shown, from its start. Names may count otherwise. “And” between values parts separate entries of the source, which are not always exact repeats. Equal values may be shown once. Each block holds one molecule with its values, some of them ahead of it.

Legend:
[1] = biological target: T1, MsVps4ΔMIT (Metallosphaera sedula, UniProt A4YHC5); experiment: ITC; type: binding
T1 construct: gene Msed_1672

[2] = biological target: T1, MsVps4ΔMIT; experiment: ITC, two-site model; type: binding
[3] = biological target: the molecule itself; experiment: SEC; Superose 6; MsVps4ΔMIT at 200 µM (Fig. 1b) and at a series of concentrations up to 0.5 mM (Supplementary Fig. 2); no nucleotide
[4] = biological target: the molecule itself; experiment: SEC-SAXS; online SEC (Superose 6 10/300 GL) in 50 mM Tris pH 8.8, 50 mM NaCl; 500 µl at 220 µM injected; BM29 at the ESRF
[5] = biological target: the molecule itself; experiment: SEC; Superose 6; N-terminally His-tagged full length MsVps4 and mutants at 70 µM, a concentration that induces dodecamer formation; no nucleotide
[6] = biological target: the molecule itself; experiment: as above; remark: listed apart in the source
[7] = biological target: hVPS4B Phe160Ala (human) (UniProt O75351)
[8] = biological target: hVPS4B Met350Ala (human) (UniProt O75351)
[9] = biological target: the molecule itself; experiment: SEC; Superose 6; hVPS4B E235Q and mutants of it at 100 µM with 1 mM ATP and 5 mM MgCl2
[10] = biological target: T2, hVPS4B E235Q (catalytic mutant of human VPS4B) (human), O75351; experiment: as above; details: remark: other sources report otherwise
T2 chain: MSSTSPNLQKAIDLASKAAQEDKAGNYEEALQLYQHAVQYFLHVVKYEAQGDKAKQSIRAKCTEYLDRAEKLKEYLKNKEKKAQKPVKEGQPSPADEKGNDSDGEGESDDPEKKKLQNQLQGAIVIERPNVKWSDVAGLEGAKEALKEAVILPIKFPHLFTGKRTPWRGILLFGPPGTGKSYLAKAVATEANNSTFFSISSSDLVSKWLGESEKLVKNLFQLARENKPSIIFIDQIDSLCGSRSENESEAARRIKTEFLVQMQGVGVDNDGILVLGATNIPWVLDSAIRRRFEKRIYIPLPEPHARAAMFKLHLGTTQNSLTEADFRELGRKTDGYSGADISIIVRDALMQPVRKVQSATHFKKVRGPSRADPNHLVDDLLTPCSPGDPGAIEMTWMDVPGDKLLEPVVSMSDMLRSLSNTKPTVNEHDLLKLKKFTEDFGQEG

Kd [1]: 3.3 µM
Molecule: Nc1ncnc2c1ncn2[C@@H]1O[C@H](COP(=O)(O)OP(=O)(O)OP(=O)(O)O)[C@@H](O)[C@H]1O [ATP]

Kd [2]: 0.4 µM
Molecule: Nc1ncnc2c1ncn2[C@@H]1O[C@H](COP(=O)(O)OP(=O)(O)O)[C@@H](O)[C@H]1O [ADP]

B1: MsVps4ΔMIT (residues 75 to 369) (domain or fragment, Metallosphera sedula, UniProt A4YHC5 75-369, looked up)
chain: VPEGGEETEKAEEDIVMKEKPKVTLNEIVGLEDVKEALKEAVVYPSKRPDLFPLGWPRGILLYGPPGCGKTMIAAAVANELDSEFIHVDAASIMSKWLGEAEKNVAKIFKTARELSKKENKPAIIFIDELDALLASYTSEVGGEARVRNQFLKEMDGLADKNEISKVYVIGATNKPWRLDEPFLRRFQKRIYITLPDKAHRLELLKHYSSKVKLDPNVNLEELAELTDGYTASDIRDIVQSAHMRVVKEMFEKNLQEPRAINMDDFREVLKVRKPSVNQDMLKAYAAWHEKFKAL
stoichiometry N [3]: 6

B2: MsVPS4 M318A, full length, His tag cleaved (enzyme, Metallosphera sedula, UniProt A4YHC5 1-369, looked up)
chain: MSAQVMLEEMARKYAIAAVRADKEGRREDAINNYKKAIEVLTQIVTLYPDMVARNAYEQMINEYKKRLETLNQMVPEGGEETEKAEEDIVMKEKPKVTLNEIVGLEDVKEALKEAVVYPSKRPDLFPLGWPRGILLYGPPGCGKTMIAAAVANELDSEFIHVDAASIMSKWLGEAEKNVAKIFKTARELSKKENKPAIIFIDELDALLASYTSEVGGEARVRNQFLKEMDGLADKNEISKVYVIGATNKPWRLDEPFLRRFQKRIYITLPDKAHRLELLKHYSSKVKLDPNVNLEELAELTDGYTASDIRDIVQSAHARVVKEMFEKNLQEPRAINMDDFREVLKVRKPSVNQDMLKAYAAWHEKFKAL
stoichiometry N [4]: 6

B3: MsVps4 Ile89Glu, full length, N-terminally His-tagged (enzyme, Metallosphera sedula, UniProt A4YHC5 1-369, looked up)
chain: B2 chain with I89E, A318M
stoichiometry N [5]: 12
stoichiometry N [6]: 6

B4: MsVps4 Glu174Ala Glu176Ala, full length, N-terminally His-tagged (enzyme, Metallosphera sedula, UniProt A4YHC5 1-369, looked up)
chain: B2 chain with E174A, E176A, A318M
stoichiometry N [5]: 12
stoichiometry N [6]: 6 and 2

B5: MsVps4 Arg259Ala Arg260Ala, full length, N-terminally His-tagged (enzyme, Metallosphera sedula, UniProt A4YHC5 1-369, looked up)
chain: B2 chain with R259A, R260A, A318M
stoichiometry N [5]: 6
stoichiometry N [6]: 2

B6: MsVps4 Met318Ala, full length, N-terminally His-tagged (enzyme, Metallosphera sedula, UniProt A4YHC5 1-369, looked up)
chain: B2 chain
stoichiometry N [5]: 6
stoichiometry N [6]: 2

B7: MsVps4 wild type, full length, N-terminally His-tagged (enzyme, Metallosphera sedula, UniProt A4YHC5 1-369, looked up)
chain: B2 chain with A318M
stoichiometry N [5]: 12
stoichiometry N [6]: 6 and 2

B8: MsVps4 Ser169Ala, full length, N-terminally His-tagged (enzyme, Metallosphera sedula, UniProt A4YHC5 1-369, looked up)
chain: B2 chain with S169A, A318M
stoichiometry N [5]: 12
stoichiometry N [6]: 6

B9: MsVps4 Glu214Tyr, full length, N-terminally His-tagged (enzyme, Metallosphera sedula, UniProt A4YHC5 1-369, looked up)
chain: B2 chain with E214Y, A318M
stoichiometry N [5]: 12
stoichiometry N [6]: 6 and 2

ATPase activity at 37°C with ATP/Mg, percent of wild-type hVPS4B [7]: 0%
B10: hVPS4B Phe160Ala (enzyme)
chain: T2 chain with F160A, Q235E

ATPase activity at 37°C with ATP/Mg, percent of wild-type hVPS4B [8]: 0%
B11: hVPS4B Met350Ala (enzyme)
chain: T2 chain with Q235E, M350A

B12: hVPS4B E235Q Ile124Glu (enzyme, human, UniProt O75351 1-444, looked up)
chain: T2 chain with I124E
stoichiometry N [9]: 6

stoichiometry N [10]: 6
B13: hVPS4B E235Q (catalytic mutant of human VPS4B), O75351 1-444 (enzyme)
chain: T2 chain
